# Test results published in article PMC9482650, “Quantitative fragmentomics allow affinity mapping of interactomes” (Nature Communications, 2022).
# T1: ARHGEF11, O15085
# T1 sequence (O15085 42-136, limits assumed, looked up): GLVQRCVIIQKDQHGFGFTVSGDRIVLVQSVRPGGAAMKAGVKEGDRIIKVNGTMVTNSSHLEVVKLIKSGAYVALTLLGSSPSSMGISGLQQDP
# T2: NHERF3_4, Q5T2W1
# T2 sequence (Q5T2W1 373-468, limits assumed, looked up): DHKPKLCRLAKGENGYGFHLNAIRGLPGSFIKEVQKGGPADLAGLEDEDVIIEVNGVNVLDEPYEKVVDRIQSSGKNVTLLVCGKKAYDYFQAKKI
# T3: TIAM2, Q8IVF5
# T3 sequence (Q8IVF5 885-986, limits assumed, looked up): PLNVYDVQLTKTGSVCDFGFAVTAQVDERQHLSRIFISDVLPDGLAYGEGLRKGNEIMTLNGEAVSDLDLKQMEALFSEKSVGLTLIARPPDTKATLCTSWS
# T4: GRIP1_4, Q9Y3R0
# T4 sequence (Q9Y3R0 467-571, limits assumed, looked up): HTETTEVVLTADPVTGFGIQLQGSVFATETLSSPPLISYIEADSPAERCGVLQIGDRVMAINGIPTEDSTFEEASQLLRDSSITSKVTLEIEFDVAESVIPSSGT
# T5: APBA3_1, O96018
# T5 sequence (O96018 389-490, limits assumed, looked up): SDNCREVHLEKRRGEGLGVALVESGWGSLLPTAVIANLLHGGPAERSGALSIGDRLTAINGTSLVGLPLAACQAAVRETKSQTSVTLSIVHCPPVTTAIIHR
# T6: LNX2_3, Q8N448
# T6 sequence (Q8N448 463-564, limits assumed, looked up): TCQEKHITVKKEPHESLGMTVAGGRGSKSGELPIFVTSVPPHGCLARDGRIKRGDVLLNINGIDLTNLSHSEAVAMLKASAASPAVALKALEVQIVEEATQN
# T7: PDZD2_2, O15018
# T7 sequence (O15018 329-429, limits assumed, looked up): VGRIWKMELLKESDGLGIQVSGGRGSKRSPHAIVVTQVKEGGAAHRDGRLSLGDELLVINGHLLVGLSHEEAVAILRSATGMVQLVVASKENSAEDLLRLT
# T8: SNTG2, Q9NY99
# T8 sequence (Q9NY99 68-166, limits assumed, looked up): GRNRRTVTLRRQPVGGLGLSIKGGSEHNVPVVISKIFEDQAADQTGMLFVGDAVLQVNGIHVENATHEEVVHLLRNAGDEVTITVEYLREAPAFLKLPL
# T9: SNTB1, Q13884
# T9 sequence (Q13884 107-205, limits assumed, looked up): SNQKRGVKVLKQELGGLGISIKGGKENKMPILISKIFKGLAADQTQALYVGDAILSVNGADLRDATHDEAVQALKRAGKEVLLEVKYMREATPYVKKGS
# T10: PDZRN3_1, Q9UPQ7
# T10 sequence (Q9UPQ7 244-349, limits assumed, looked up): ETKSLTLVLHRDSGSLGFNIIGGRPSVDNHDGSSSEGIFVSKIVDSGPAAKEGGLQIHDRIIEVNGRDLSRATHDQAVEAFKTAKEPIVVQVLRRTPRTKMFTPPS
# T11: HTRA4, P83105
# T11 sequence (P83105 378-476, limits assumed, looked up): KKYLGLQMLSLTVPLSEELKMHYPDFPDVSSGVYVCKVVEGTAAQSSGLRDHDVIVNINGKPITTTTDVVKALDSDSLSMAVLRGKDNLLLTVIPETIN
# T12: LIN7C, Q9NUP9
# T12 sequence (Q9NUP9 88-185, limits assumed, looked up): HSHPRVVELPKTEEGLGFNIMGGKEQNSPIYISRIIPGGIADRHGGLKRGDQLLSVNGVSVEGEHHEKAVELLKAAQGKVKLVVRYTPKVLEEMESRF
# Biological target: LNX1_2, Q8TBB1
# Experiment: holdup assay
# Design: key: below the threshold = too weak to quantify, mostly under pKd 3.1 to 4
# Settings: plain residues with an end cap or a label only (N-terminal biotin on a linker: ado-ado)
# Sequence of LNX1_2, Q8TBB1 (Q8TBB1 371-470): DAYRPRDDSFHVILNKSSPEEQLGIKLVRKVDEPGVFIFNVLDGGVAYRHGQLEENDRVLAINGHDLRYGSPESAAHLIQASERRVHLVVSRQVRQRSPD
row,pKd,Binder
1,below the threshold,"EAVTVESTSL [SLC22A11, Q9NSA0]"
2,below the threshold,"QQGLLPHSSC [TYRO3, Q06418]"

# Biological target: T1, ARHGEF11, O15085
# Experiment: holdup assay
# Design: key: below the threshold = too weak to quantify, mostly under pKd 3.1 to 4
# Settings: plain residues with an end cap or a label only (N-terminal biotin on a linker: ado-ado)
row,pKd,Binder
1,4.95,"EAVTVESTSL [SLC22A11, Q9NSA0]"
2,3.55,"QQGLLPHSSC [TYRO3, Q06418]"

# Biological target: T2, NHERF3_4, Q5T2W1
# Experiment: holdup assay
# Design: key: below the threshold = too weak to quantify, mostly under pKd 3.1 to 4
# Settings: plain residues with an end cap or a label only (N-terminal biotin on a linker: ado-ado)
row,pKd,Binder
1,4.92,"EAVTVESTSL [SLC22A11, Q9NSA0]"
2,below the threshold,"QQGLLPHSSC [TYRO3, Q06418]"

# Biological target: FRMPD2_2, Q68DX3
# Experiment: holdup assay
# Design: key: below the threshold = too weak to quantify, mostly under pKd 3.1 to 4
# Settings: plain residues with an end cap or a label only (N-terminal biotin on a linker: ado-ado)
# Sequence of FRMPD2_2, Q68DX3 (Q68DX3 944-1038): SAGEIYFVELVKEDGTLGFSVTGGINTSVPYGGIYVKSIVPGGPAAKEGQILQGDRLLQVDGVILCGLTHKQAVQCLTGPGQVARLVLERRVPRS
row,pKd,Binder
1,below the threshold,"EAVTVESTSL [SLC22A11, Q9NSA0]"
2,below the threshold,"QQGLLPHSSC [TYRO3, Q06418]"

# Biological target: T3, TIAM2, Q8IVF5
# Experiment: holdup assay
# Design: key: below the threshold = too weak to quantify, mostly under pKd 3.1 to 4
# Settings: plain residues with an end cap or a label only (N-terminal biotin on a linker: ado-ado)
row,pKd,Binder
1,below the threshold,"EAVTVESTSL [SLC22A11, Q9NSA0]"
2,below the threshold,"QQGLLPHSSC [TYRO3, Q06418]"

# Biological target: T4, GRIP1_4, Q9Y3R0
# Experiment: holdup assay
# Design: key: below the threshold = too weak to quantify, mostly under pKd 3.1 to 4
# Settings: plain residues with an end cap or a label only (N-terminal biotin on a linker: ado-ado)
row,pKd,Binder
1,below the threshold,"EAVTVESTSL [SLC22A11, Q9NSA0]"
2,below the threshold,"QQGLLPHSSC [TYRO3, Q06418]"

# Biological target: MAGI2_4, Q86UL8
# Experiment: holdup assay
# Design: key: below the threshold = too weak to quantify, mostly under pKd 3.1 to 4
# Settings: plain residues with an end cap or a label only (N-terminal biotin on a linker: ado-ado)
# Sequence of MAGI2_4, Q86UL8 (Q86UL8 772-865): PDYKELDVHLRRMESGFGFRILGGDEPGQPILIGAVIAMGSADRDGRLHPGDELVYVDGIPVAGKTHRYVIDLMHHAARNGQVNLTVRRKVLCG
row,pKd,Binder
1,below the threshold,"EAVTVESTSL [SLC22A11, Q9NSA0]"
2,below the threshold,"QQGLLPHSSC [TYRO3, Q06418]"

# Biological target: T5, APBA3_1, O96018
# Experiment: holdup assay
# Design: key: below the threshold = too weak to quantify, mostly under pKd 3.1 to 4
# Settings: plain residues with an end cap or a label only (N-terminal biotin on a linker: ado-ado)
row,pKd,Binder
1,below the threshold,"EAVTVESTSL [SLC22A11, Q9NSA0]"
2,below the threshold,"QQGLLPHSSC [TYRO3, Q06418]"

# Biological target: DLG2_2, Q15700
# Experiment: holdup assay
# Design: key: below the threshold = too weak to quantify, mostly under pKd 3.1 to 4
# Settings: plain residues with an end cap or a label only (N-terminal biotin on a linker: ado-ado)
# Sequence of DLG2_2, Q15700 (Q15700 189-283): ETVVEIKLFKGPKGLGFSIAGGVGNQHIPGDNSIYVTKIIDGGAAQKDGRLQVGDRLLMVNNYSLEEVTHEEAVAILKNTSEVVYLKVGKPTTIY
row,pKd,Binder
1,below the threshold,"EAVTVESTSL [SLC22A11, Q9NSA0]"
2,below the threshold,"QQGLLPHSSC [TYRO3, Q06418]"

# Biological target: T6, LNX2_3, Q8N448
# Experiment: holdup assay
# Design: key: below the threshold = too weak to quantify, mostly under pKd 3.1 to 4
# Settings: plain residues with an end cap or a label only (N-terminal biotin on a linker: ado-ado)
row,pKd,Binder
1,below the threshold,"EAVTVESTSL [SLC22A11, Q9NSA0]"
2,below the threshold,"QQGLLPHSSC [TYRO3, Q06418]"

# Biological target: SCRIB_2, Q14160
# Experiment: holdup assay
# Design: key: below the threshold = too weak to quantify, mostly under pKd 3.1 to 4
# Settings: plain residues with an end cap or a label only (N-terminal biotin on a linker: ado-ado)
# Sequence of SCRIB_2, Q14160 (Q14160 857-960): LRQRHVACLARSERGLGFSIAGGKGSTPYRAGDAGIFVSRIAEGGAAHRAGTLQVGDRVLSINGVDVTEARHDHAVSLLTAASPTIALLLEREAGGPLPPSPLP
row,pKd,Binder
1,3.79,"EAVTVESTSL [SLC22A11, Q9NSA0]"
2,below the threshold,"QQGLLPHSSC [TYRO3, Q06418]"

# Biological target: T7, PDZD2_2, O15018
# Experiment: holdup assay
# Design: key: below the threshold = too weak to quantify, mostly under pKd 3.1 to 4
# Settings: plain residues with an end cap or a label only (N-terminal biotin on a linker: ado-ado)
row,pKd,Binder
1,4.4,"EAVTVESTSL [SLC22A11, Q9NSA0]"
2,3.55,"QQGLLPHSSC [TYRO3, Q06418]"

# Biological target: IL16_4, Q14005
# Experiment: holdup assay
# Design: key: below the threshold = too weak to quantify, mostly under pKd 3.1 to 4
# Settings: plain residues with an end cap or a label only (N-terminal biotin on a linker: ado-ado)
# Sequence of IL16_4, Q14005 (Q14005 1229-1329): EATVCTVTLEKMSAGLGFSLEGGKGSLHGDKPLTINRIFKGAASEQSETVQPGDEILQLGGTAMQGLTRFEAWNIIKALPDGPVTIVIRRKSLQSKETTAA
row,pKd,Binder
1,below the threshold,"EAVTVESTSL [SLC22A11, Q9NSA0]"
2,below the threshold,"QQGLLPHSSC [TYRO3, Q06418]"

# Biological target: Inadl_3, Q8NI35
# Experiment: holdup assay
# Design: key: below the threshold = too weak to quantify, mostly under pKd 3.1 to 4
# Settings: plain residues with an end cap or a label only (N-terminal biotin on a linker: ado-ado)
# Sequence of Inadl_3, Q8NI35 (Q8NI35 359-469): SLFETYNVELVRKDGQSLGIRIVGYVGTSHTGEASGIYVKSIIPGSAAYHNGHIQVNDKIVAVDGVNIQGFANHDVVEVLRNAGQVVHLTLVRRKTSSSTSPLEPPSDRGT
row,pKd,Binder
1,below the threshold,"EAVTVESTSL [SLC22A11, Q9NSA0]"
2,below the threshold,"QQGLLPHSSC [TYRO3, Q06418]"

# Biological target: LAP2, Q96RT1
# Experiment: holdup assay
# Design: key: below the threshold = too weak to quantify, mostly under pKd 3.1 to 4
# Settings: plain residues with an end cap or a label only (N-terminal biotin on a linker: ado-ado)
# Sequence of LAP2, Q96RT1 (Q96RT1 other isoform, or with tags, fused parts or gaps): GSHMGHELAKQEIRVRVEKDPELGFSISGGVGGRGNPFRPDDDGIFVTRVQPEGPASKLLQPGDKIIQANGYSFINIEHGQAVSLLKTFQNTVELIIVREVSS
row,pKd,Binder
1,below the threshold,"EAVTVESTSL [SLC22A11, Q9NSA0]"
2,below the threshold,"QQGLLPHSSC [TYRO3, Q06418]"

# Biological target: T8, SNTG2, Q9NY99
# Experiment: holdup assay
# Design: key: below the threshold = too weak to quantify, mostly under pKd 3.1 to 4
# Settings: plain residues with an end cap or a label only (N-terminal biotin on a linker: ado-ado)
row,pKd,Binder
1,3.64,"EAVTVESTSL [SLC22A11, Q9NSA0]"
2,below the threshold,"QQGLLPHSSC [TYRO3, Q06418]"

# Biological target: T9, SNTB1, Q13884
# Experiment: holdup assay
# Design: key: below the threshold = too weak to quantify, mostly under pKd 3.1 to 4
# Settings: plain residues with an end cap or a label only (N-terminal biotin on a linker: ado-ado)
row,pKd,Binder
1,3.94,"EAVTVESTSL [SLC22A11, Q9NSA0]"
2,below the threshold,"QQGLLPHSSC [TYRO3, Q06418]"

# Biological target: AHNAK1, Q09666
# Experiment: holdup assay
# Design: key: below the threshold = too weak to quantify, mostly under pKd 3.1 to 4
# Settings: plain residues with an end cap or a label only (N-terminal biotin on a linker: ado-ado)
# Sequence of AHNAK1, Q09666 (Q09666 4-100): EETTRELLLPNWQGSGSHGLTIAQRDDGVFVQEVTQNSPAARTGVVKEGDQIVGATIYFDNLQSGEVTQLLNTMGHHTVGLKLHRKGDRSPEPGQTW
row,pKd,Binder
1,below the threshold,"EAVTVESTSL [SLC22A11, Q9NSA0]"
2,below the threshold,"QQGLLPHSSC [TYRO3, Q06418]"

# Biological target: DLG1_3, Q12959
# Experiment: holdup assay
# Design: key: below the threshold = too weak to quantify, mostly under pKd 3.1 to 4
# Settings: plain residues with an end cap or a label only (N-terminal biotin on a linker: ado-ado)
# Sequence of DLG1_3, Q12959 (Q12959 457-571): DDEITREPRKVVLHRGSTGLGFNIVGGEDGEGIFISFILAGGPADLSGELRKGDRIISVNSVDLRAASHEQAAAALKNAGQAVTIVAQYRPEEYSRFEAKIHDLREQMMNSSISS
row,pKd,Binder
1,below the threshold,"EAVTVESTSL [SLC22A11, Q9NSA0]"
2,below the threshold,"QQGLLPHSSC [TYRO3, Q06418]"

# Biological target: T10, PDZRN3_1, Q9UPQ7
# Experiment: holdup assay
# Design: key: below the threshold = too weak to quantify, mostly under pKd 3.1 to 4
# Settings: plain residues with an end cap or a label only (N-terminal biotin on a linker: ado-ado)
row,pKd,Binder
1,4.24,"EAVTVESTSL [SLC22A11, Q9NSA0]"
2,below the threshold,"QQGLLPHSSC [TYRO3, Q06418]"

# Biological target: T11, HTRA4, P83105
# Experiment: holdup assay
# Design: key: below the threshold = too weak to quantify, mostly under pKd 3.1 to 4
# Settings: plain residues with an end cap or a label only (N-terminal biotin on a linker: ado-ado)
row,pKd,Binder
1,below the threshold,"EAVTVESTSL [SLC22A11, Q9NSA0]"
2,below the threshold,"QQGLLPHSSC [TYRO3, Q06418]"

# Biological target: LNX1_3, Q8TBB1
# Experiment: holdup assay
# Design: key: below the threshold = too weak to quantify, mostly under pKd 3.1 to 4
# Settings: plain residues with an end cap or a label only (N-terminal biotin on a linker: ado-ado)
# Sequence of LNX1_3, Q8TBB1 (Q8TBB1 500-596): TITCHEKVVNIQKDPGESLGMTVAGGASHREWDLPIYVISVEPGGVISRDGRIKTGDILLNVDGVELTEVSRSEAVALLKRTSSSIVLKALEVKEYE
row,pKd,Binder
1,below the threshold,"EAVTVESTSL [SLC22A11, Q9NSA0]"
2,below the threshold,"QQGLLPHSSC [TYRO3, Q06418]"

# Biological target: TJP1_3, Q07157
# Experiment: holdup assay
# Design: key: below the threshold = too weak to quantify, mostly under pKd 3.1 to 4
# Settings: plain residues with an end cap or a label only (N-terminal biotin on a linker: ado-ado)
# Sequence of TJP1_3, Q07157 (Q07157 416-512): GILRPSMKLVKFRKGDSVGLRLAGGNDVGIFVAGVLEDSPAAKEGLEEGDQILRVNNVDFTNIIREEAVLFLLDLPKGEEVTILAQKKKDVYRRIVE
row,pKd,Binder
1,below the threshold,"EAVTVESTSL [SLC22A11, Q9NSA0]"
2,below the threshold,"QQGLLPHSSC [TYRO3, Q06418]"

# Biological target: SNX27, Q96L92
# Experiment: holdup assay
# Design: key: below the threshold = too weak to quantify, mostly under pKd 3.1 to 4
# Settings: plain residues with an end cap or a label only (N-terminal biotin on a linker: ado-ado)
row,pKd,Binder
1,5.41,"EAVTVESTSL [SLC22A11, Q9NSA0]"
2,below the threshold,"QQGLLPHSSC [TYRO3, Q06418]"

# Biological target: Inadl_6, Q8NI35
# Experiment: holdup assay
# Design: key: below the threshold = too weak to quantify, mostly under pKd 3.1 to 4
# Settings: plain residues with an end cap or a label only (N-terminal biotin on a linker: ado-ado)
# Sequence of Inadl_6, Q8NI35 (Q8NI35 1058-1167): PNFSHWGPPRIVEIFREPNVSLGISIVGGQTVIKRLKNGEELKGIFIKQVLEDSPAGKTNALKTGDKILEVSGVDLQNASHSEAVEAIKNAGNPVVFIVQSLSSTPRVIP
row,pKd,Binder
1,3.94,"EAVTVESTSL [SLC22A11, Q9NSA0]"
2,below the threshold,"QQGLLPHSSC [TYRO3, Q06418]"

# Biological target: T12, LIN7C, Q9NUP9
# Experiment: holdup assay
# Design: key: below the threshold = too weak to quantify, mostly under pKd 3.1 to 4
# Settings: plain residues with an end cap or a label only (N-terminal biotin on a linker: ado-ado)
row,pKd,Binder
1,below the threshold,"EAVTVESTSL [SLC22A11, Q9NSA0]"
2,3.95,"QQGLLPHSSC [TYRO3, Q06418]"
